Measurements: PMC5961942

Target: trimeric PD-L1 trap (mouse) (UniProt Q02242)
Assay: SDS-PAGE without reducing agent

- stoichiometry N: 3
Substance: trimeric PD-L1 trap (from UniProt Q02242 21-150; P51942 458-500) (designed binder)
